Laboratory results as given in patent US20190016813A1 (APROGEN KIC, published 2019).
Substitutions are numbered along the chain they refer to. Names and notes keep the numbering of the source.

T1: human CD43 (JL-1 antigen) on cells (human, UniProt P16150 20-400)
T1 construct: also called leukosialin; sialophorin
T1 sequence: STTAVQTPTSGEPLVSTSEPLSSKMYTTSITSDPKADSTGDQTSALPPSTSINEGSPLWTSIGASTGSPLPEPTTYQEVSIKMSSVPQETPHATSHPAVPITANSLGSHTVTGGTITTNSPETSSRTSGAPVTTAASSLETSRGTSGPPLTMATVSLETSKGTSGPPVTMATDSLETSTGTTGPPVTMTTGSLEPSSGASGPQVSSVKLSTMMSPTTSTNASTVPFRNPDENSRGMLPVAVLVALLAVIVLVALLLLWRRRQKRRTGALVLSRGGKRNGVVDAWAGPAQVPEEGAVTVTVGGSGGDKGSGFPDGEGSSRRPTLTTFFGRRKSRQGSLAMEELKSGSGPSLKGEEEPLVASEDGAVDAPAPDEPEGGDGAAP

B1: mouse anti-CD43 monoclonal antibody (ART140 JL1) (antibody, human IgG1, kappa, V domains shown)
VH: EVQLQQSGPELVKPGASVKISCKASGYSIGGYFMNWVKQSHGKSPEWIGRINPNNGDSFYNQKFKGTATLTVDRSSDTVHMEVLSLTSEDSAVYYCGREGYYGGRGYALDYWGQGTSVTVSS
VL: DIQMTQTTSSLSASLGDRVTISCRTSQDISNYLNWYQQKPDGTVKLLIYNTSRLHSGVPSRFSGSGSGTDYSLTIRNLEQKDIATYFCQQSNMFPYTFGGGTKLEIKR
notes: also called mouse anti-JL-1 antibody; mJL-1
B2: humanized anti-CD43 antibody 257-10 (antibody, IgG1, V domains shown)
VH: QVQLVQSGAEVKKPGASVKVSCKASGYTFNGYFMNWVRQAPGQGLRWMGRINPNNGDSFYNQKFQGRVTMTRDTSTSTVYMEPSSLRSEDTAVYYCAREGYYGGRGYALDYWGQGTLVTVSS
VL: DTQMTQSPSSVSASVGDRVTITCRTSQDISNYLNWYQQKPGKAPKLLIYNTSRLHSGVPSRFSGSGSGTDFTLTISSLQPEDFATYYCQQSNMFPYTFGQGTKLEIKR
modifications: glycosylated in the light chain variable region (N50-T-S52 motif; Concanavalin A blot)
B3: modified humanized anti-CD43 antibody, light chain N50Q (antibody, V domains shown)
VH: B2 VH
VL: DTQMTQSPSSVSASVGDRVTITCRTSQDISNYLNWYQQKPGKAPKLLIYQTSRLHSGVPSRFSGSGSGTDFTLTISSLQPEDFATYYCQQSNMFPYTFGQGTKLEIK
B4: modified humanized anti-CD43 antibody, light chain N50A (antibody, V domains shown)
VH: B2 VH
VL: B3 VL with Q50A
notes: also called modified humanized antibody removing glycosylation
B5: humanized anti-CD43 antibody 456-D10 (antibody, V domains shown)
VH: B2 VH with R46E, W47R, P83L, S84P
VL: B2 VL with K39E
notes: tested as humanized IgG

What was measured:
[1] = biological target: T1, human CD43 (JL-1 antigen) on cells; experiment: immunofluorescence on Molt-4 cells, antibody 50 ug/ml, no human serum
[2] = biological target: T1, human CD43 (JL-1 antigen) on cells; experiment: staining of CEM7 cells, fluorescence intensity (FIG. 34)
[3] = biological target: T1, human CD43 (JL-1 antigen) on cells; experiment: binding to CD43 positive CEM7 cells (FIG. 45)

| Binder | binding result [2] | binding result [3] | further results |
| --- | --- | --- | --- |
| B1 |  |  | binding result [1]: binds |
| B2 | binds |  |  |
| B3 |  | binds |  |
| B4 |  | binds |  |
| B5 | binds |  |  |
